From paper PMC2859985 (Virus research, 2010)

T1: importin alpha 3, His-tagged (human, UniProt O00629 1-521)
T1 sequence (looked up): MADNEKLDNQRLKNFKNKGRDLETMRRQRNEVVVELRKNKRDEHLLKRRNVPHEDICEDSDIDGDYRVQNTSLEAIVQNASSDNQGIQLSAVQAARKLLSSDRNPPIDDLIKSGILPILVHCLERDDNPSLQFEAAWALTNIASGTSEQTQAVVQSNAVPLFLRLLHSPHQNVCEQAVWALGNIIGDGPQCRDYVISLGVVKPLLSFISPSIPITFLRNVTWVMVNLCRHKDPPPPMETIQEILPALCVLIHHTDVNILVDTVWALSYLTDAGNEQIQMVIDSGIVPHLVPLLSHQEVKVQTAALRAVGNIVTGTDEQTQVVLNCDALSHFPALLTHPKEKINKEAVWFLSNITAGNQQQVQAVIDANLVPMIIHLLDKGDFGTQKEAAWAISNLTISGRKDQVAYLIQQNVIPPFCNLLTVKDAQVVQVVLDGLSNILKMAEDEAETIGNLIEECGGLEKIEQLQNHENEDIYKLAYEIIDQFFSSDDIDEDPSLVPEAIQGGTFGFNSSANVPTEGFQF


Columns and labels:
[1] = molecular target: importin alpha 5, His-tagged (human, UniProt P52294 1-538); assay: pull-down
Chain of importin alpha 5, His-tagged (P52294 whole entry): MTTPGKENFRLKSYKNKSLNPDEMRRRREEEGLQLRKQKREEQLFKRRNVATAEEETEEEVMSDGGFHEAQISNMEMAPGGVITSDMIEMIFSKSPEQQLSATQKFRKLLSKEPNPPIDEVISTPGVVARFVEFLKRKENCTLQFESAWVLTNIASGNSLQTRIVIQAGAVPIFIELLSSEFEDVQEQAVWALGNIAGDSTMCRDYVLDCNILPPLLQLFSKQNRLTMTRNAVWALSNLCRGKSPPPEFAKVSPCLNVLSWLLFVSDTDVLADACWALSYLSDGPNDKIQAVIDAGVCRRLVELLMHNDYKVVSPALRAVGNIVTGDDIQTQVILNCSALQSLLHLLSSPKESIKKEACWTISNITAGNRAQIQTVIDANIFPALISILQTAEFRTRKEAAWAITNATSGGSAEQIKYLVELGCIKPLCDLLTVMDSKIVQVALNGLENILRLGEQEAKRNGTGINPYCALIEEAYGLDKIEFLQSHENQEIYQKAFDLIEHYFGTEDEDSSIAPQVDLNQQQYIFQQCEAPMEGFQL

[2] = molecular target: T1, importin alpha 3, His-tagged; assay: pull-down

Row | Binder | binding result [1] | binding result [2]
1 | GST-HPV11 E2 (natural protein) MEAIAKRLDACQDQLLELYEENSIDIHKHIMHWKCIRLESVLLHKAKQMGLSHIGLQVVPPLTVSETKGHNAIEMQMHLESLAKTQYGVEPWTLQDTSYEMWLTPPKRCFKKQGNTVEVKFDGCEDNVMEYVVWTHIYLQDNDSWVKVTSSVDAKGIYYTCGQFKTYYVNFNKEAQKYGSTNHWEVCYGSTVICSPASVSSTVREVSIAEPTTYTPAQTTAPTVSACTTEDGVSAPPRKRARGPSTNNTLCVANIRSVDSTINNIVTDNYNKHQRRNNCHSAATPIVQLQGDSNCLKCFRYRLNDKYKHLFELASSTWHWASPEAPHKNAIVTLTYSSEEQRQQFLNSVKIPPTIRHKVGFMSLHLL | binds | binds
2 | GST-HPV16 E2 (natural protein) METLCQRLNVCQDKILTHYENDSTDLRDHIDYWKHMRLECAIYYKAREMGFKHINHQVVPTLAVSKNKALQAIELQLTLETIYNSQYSNEKWTLQDVSLEVYLTAPTGCIKKHGYTVEVQFDGDICNTMHYTNWTHIYICEEASVTVVEGQVDYYGLYYVHEGIRTYFVQFKDDAEKYSKNKVWEVHAGGQVILCPTSVFSSNEVSSPEIIRQHLANHPAATHTKAVALGTEETQTTIQRPRSEPDTGNPCHTTKLLHRDSVDSAPILTAFNSSHKGRINCNSNTTPIVHLKGDANTLKCLRYRFKKHCTLYTAVSSTWHWTGHNVKHKSAIVTLTYDSEWQRDQFLSQVKIPKTITVSTGFMSI | binds | –
